Patent US20250026849A1 (ARCELLX, published 2025)

T1: CD123 (Homo sapiens (Human), UniProt P26951 19-305, limits assumed)
T1 construct: The CD123 construct used in the ELISA is not described; also called CD123-Signal
T1 sequence: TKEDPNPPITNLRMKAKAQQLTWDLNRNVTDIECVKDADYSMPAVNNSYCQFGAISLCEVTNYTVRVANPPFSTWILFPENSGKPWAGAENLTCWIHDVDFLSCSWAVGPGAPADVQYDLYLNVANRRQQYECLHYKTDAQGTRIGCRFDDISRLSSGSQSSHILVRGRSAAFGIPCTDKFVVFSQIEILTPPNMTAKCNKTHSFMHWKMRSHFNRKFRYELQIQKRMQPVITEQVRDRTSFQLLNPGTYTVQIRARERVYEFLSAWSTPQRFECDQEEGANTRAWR


molecular target: T1, CD123; test: ELISA; design: unit not given here

| Binder | ELISA_avg |
| --- | --- |
| D domain of SEQ ID NO: 612 (designed binder) MGSWEEFDYRLYAIQDRLYALGGSEAELAFFEWEIADFEHMLQMYKGKGNPEVEALFQEADAIDAELHAYRHN | 4.4 |
| D domain of SEQ ID NO: 620 (designed binder) MGSWIEFEDRLDAITDRLWALGGSEAELAEFEHQIAFFEEDLQWYKGKGNPEVEALHMEAEAIMEELGAYRHN | 9.5 |
| D domain of SEQ ID NO: 632 (designed binder) MGSWYEFQERLDAIDSRLWALGGSEAELAWFEYTIAEFEKELQMYKGKGNPEVEALGTEAVAISEELMAYRHN | 5.5 |
| D domain of SEQ ID NO: 646 (designed binder) MGSWYEFMGRLEAIDERLQALGGSEAELAWFEHEIAEFEWSLQWYKGKGNPEVEALRFEAGAIPWELWAYRHN | 3.5 |
| D domain of SEQ ID NO: 622 (designed binder) MGSWEEFEDRLFAIDSRLWALGGSEAELAEFENIIASFEEVLQEYKGKGNPEVEALSVEAFAIDRELGAYRHN | 3.7 |
| D domain of SEQ ID NO: 628 (designed binder) MGSWTEFDERLDAIDWRLEALGGSEAELAWFEGDIALFEQYLQVYKGKGNPEVEALMEEADAIKAELDAYRHN | 4.5 |
| D domain of SEQ ID NO: 626 (designed binder) MGSWFEFDARLMAINDRLWALGGSEAELAAFEYHIALFEDQLQMYKGKGNPEVEALTLEAVAINEELWAYRHN | 4 |
| D domain of SEQ ID NO: 607 (designed binder) MGSWYEFEDRLAAIWDRLNALGGSEAELAIFEWDIAWFEEGLQEYKGKGNPEVEALKHEASAIQTELFAYRHN | 6.4 |
| D domain of SEQ ID NO: 633 (designed binder) MGSWEEFEDRLWAIDGRLYALGGSEAELAWFEQWIATFEEDLQDYKGKGNPEVEALEYEASAIFEELEAYRHN | 9.4 |
| D domain of SEQ ID NO: 631 (designed binder) MGSWYEFDERLDAIFDRLWALGGSEAELAYFEQVIATFEKTLQRYKGKGNPEVEALDTEAKAISWELDAYRHN | 3 |
| D domain of SEQ ID NO: 616 (designed binder) MGSWLEFEYRLDAIYDRLFALGGSEAELAAFEQDIADFEKYLQYYKGKGNPEVEALWEEADAIMWELFAYRHN | 3.1 |
| D domain of SEQ ID NO: 627 (designed binder) MGSWVEFDSRLAAIDYRLEALGGSEAELAWFEYTIANFEHTLQMYKGKGNPEVEALVYEAHAIATELQAYRHN | 3.4 |
| D domain of SEQ ID NO: 608 (designed binder) MGSWLEFESRLWAIWDRLDALGGSEAELAHFEQDIADFEMSLQEYKGKGNPEVEALIREAEAIETELYAYRHN | 3.4 |
| D domain of SEQ ID NO: 605 (designed binder) MGSWAEFDSRLIAIFDRLWALGGSEAELAWFEDDIAQFEQHLQAYKGKGNPEVEALRQEADAITFELKAYRHN | 3.6 |
| D domain of SEQ ID NO: 647 (designed binder) MGSWVEFSNRLDAIWERLQALGGSEAELAYFEWEIAEFEWELQSYKGKGNPEVEALNAEADAIEWELEAYRHN | 5.1 |
| D domain of SEQ ID NO: 621 (designed binder) MGSWMEFEDRLMAIVDRLWALGGSEAELADFEWNIAMFEEELQWYKGKGNPEVEALGDEAEAIEWELYAYRHN | 6.8 |
| D domain of SEQ ID NO: 606 (designed binder) MGSWTEFEERLEAIWDRLYALGGSEAELAAFEWDIAYFEDGLQEYKGKGNPEVEALFMEAEAIIRELKAYRHN | 5.9 |
| D domain of SEQ ID NO: 640 (designed binder) MGSWYEFEWRLDAIDRRLWALGGSEAELADFEEEIADFEWMLQNYKGKGNPEVEALVDEASAIQTELWAYRHN | 10 |
| D domain of SEQ ID NO: 636 (designed binder) MGSWVEFMDRLEAIEERLSALGGSEAELAFFEWEIAEFEEHLQVYKGKGNPEVEALEWEALAITEELAAYRHN | 4 |
| D domain of SEQ ID NO: 625 (designed binder) MGSWFEFDDRLEAIFDRLWALGGSEAELAMFEFAIAEFEDALQEYKGKGNPEVEALYEEAVAIDEELYAYRHN | 4.1 |
| D domain of SEQ ID NO: 641 (designed binder) MGSWYEFVYRLRAIDERLDALGGSEAELAMFEFEIAFFEDQLQRYKGKGNPEVEALVDEAQAIDFELFAYRHN | 4.5 |
| D domain of SEQ ID NO: 617 (designed binder) MGSWHEFEERLMAIEDRLWALGGSEAELAEFEQWIALFEYDLQEYKGKGNPEVEALGMEAFAINNELSAYRHN | 5.8 |

| Binder | ELISA_avg |
| --- | --- |
| D domain of SEQ ID NO: 618 (designed binder) MGSWYEFEERLDAIEDRLIALGGSEAELAIFEDIIAFFEQDLQYYKGKGNPEVEALEMEAEAISIELDAYRHN | 4.1 |
| D domain of SEQ ID NO: 611 (designed binder) MGSWYEFVSRLDAIEYRLWALGGSEAELAWFEWDIADFEQGLQFYKGKGNPEVEALAQEANAIGSELTAYRHN | 3.2 |
| D domain of SEQ ID NO: 629 (designed binder) MGSWIEFDERLDAIDFRLWALGGSEAELAWFEGWIAEFESDLQLYKGKGNPEVEALNEEANAIFHELSAYRHN | 7 |
| D domain of SEQ ID NO: 645 (designed binder) MGSWYEFFDRLDAIDERLWALGGSEAELAWFEAEIAEFEMELQGYKGKGNPEVEALDVEAHAIEMELFAYRHN | 3.7 |
| D domain of SEQ ID NO: 637 (designed binder) MGSWIEFMDRLWAIDQRLWALGGSEAELAWFEEEIAWFEEELQVYKGKGNPEVEALEWEATAISEELWAYRHN | 6.5 |
| D domain of SEQ ID NO: 623 (designed binder) MGSWEEFLFRLEAIQDRLWALGGSEAELAWFEYEIASFEDVLQSYKGKGNPEVEALSTEAKAIDYELFAYRHN | 8.2 |
| D domain of SEQ ID NO: 615 (designed binder) MGSWFEFEYRLDAIIDRLFALGGSEAELAEFESMIANFEYSLQEYKGKGNPEVEALYFEADAIVDELTAYRHN | 4 |
| D domain of SEQ ID NO: 634 (designed binder) MGSWFEFGDRLEAIDERLYALGGSEAELAQFEWWIAEFEHHLQDYKGKGNPEVEALEYEADAIWGELHAYRHN | 4.5 |
| D domain of SEQ ID NO: 624 (designed binder) MGSWVEFDNRLFAIDERLWALGGSEAELAWFEEEIASFEDNLQKYKGKGNPEVEALQLEAFAIMEELDAYRHN | 3.3 |
| D domain of SEQ ID NO: 609 (designed binder) MGSWMEFEDRLIAIWARLDALGGSEAELAWFEADIADFEESLQEYKGKGNPEVEALIFEAIAINKELMAYRHN | 3.7 |
| D domain of SEQ ID NO: 614 (designed binder) MGSWYEFSSRLNAIDDRLWALGGSEAELAYFETDIADFESLLQWYKGKGNPEVEALLNEADAIDYELYAYRHN | 3.8 |
| D domain of SEQ ID NO: 613 (designed binder) MGSWIEFFHRLDAIQDRLDALGGSEAELAYFEWAIADFEHMLQLYKGKGNPEVEALQFEAFAIEGELYAYRHN | 3.5 |
| D domain of SEQ ID NO: 639 (designed binder) MGSWWEFEIRLDAIDERLWALGGSEAELAWFEQSIAFFENDLQVYKGKGNPEVEALRWEANAIIEELFAYRHN | 3.2 |
| D domain of SEQ ID NO: 610 (designed binder) MGSWFEFTIRLEAIQDRLDALGGSEAELAWFEWDIAEFEEGLQFYKGKGNPEVEALHTEADAIMNELVAYRHN | 3.5 |
| D domain of SEQ ID NO: 638 (designed binder) MGSWEEFNWRLRAIDERLFALGGSEAELAWFEYDIAEFEEQLQVYKGKGNPEVEALRVEAAAIAEELYAYRHN | 5.4 |
| D domain of SEQ ID NO: 619 (designed binder) MGSWHEFEKRLYAIEDRLIALGGSEAELAWFEDSIAWFEWDLQMYKGKGNPEVEALNEEADAIYQELDAYRHN | 3.6 |
| D domain of SEQ ID NO: 642 (designed binder) MGSWWEFEDRLYAIDDRLWALGGSEAELAQFEREIAQFEIWLQEYKGKGNPEVEALDDEATAINSELFAYRHN | 5.5 |
| D domain of SEQ ID NO: 644 (designed binder) MGSWEEFEWRLDAIDERLWALGGSEAELATFEYEIAIFENELQQYKGKGNPEVEALDSEAYAIERELGAYRHN | 4.3 |
| D domain of SEQ ID NO: 643 (designed binder) MGSWDEFEFRLEAIDSRLWALGGSEAELAVFEYEIAQFEFMLQEYKGKGNPEVEALGMEAWAIENELFAYRHN | 3.6 |
| D domain of SEQ ID NO: 630 (designed binder) MGSWWEFDSRLDAIDFRLWALGGSEAELAWFEVEIADFEDWLQLYKGKGNPEVEALWHEADAIVTELYAYRHN | 3.2 |
| D domain of SEQ ID NO: 635 (designed binder) MGSWFEFNDRLDAISERLSALGGSEAELAYFEWQIAVFEKTLQNYKGKGNPEVEALTLEANAIFEELEAYRHN | 3.9 |
